# Reference: patent publication US20250340654A1 (INTERVET, published 2025)
# T1: Canine IL-31RA ECD-10His (canine, biotin-labeled in the Octet assay (site not stated))
# T1 construct: The ELISA and Octet protocols say only 'IL-31RA' or 'canine IL-31RA'; also called cIL-31RA; canine IL-31 receptor alpha extracellular domain, HIS-tagged
# T1 chain: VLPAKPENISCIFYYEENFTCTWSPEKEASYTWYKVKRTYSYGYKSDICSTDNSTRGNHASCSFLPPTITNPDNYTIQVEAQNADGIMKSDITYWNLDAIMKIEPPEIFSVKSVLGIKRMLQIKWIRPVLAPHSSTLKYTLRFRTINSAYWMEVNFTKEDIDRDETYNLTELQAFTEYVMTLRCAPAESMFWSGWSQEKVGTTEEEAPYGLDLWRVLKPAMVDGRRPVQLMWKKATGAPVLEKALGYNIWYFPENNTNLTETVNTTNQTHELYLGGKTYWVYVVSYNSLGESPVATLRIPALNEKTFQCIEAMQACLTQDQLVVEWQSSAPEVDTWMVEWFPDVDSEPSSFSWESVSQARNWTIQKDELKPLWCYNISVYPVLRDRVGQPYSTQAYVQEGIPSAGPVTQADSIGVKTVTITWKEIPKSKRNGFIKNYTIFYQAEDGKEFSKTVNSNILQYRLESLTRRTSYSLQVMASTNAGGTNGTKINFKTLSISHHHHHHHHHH
# Key:
# Canine IL-31RA ECD-10His [1] = molecular target: T1, Canine IL-31RA ECD-10His; assay: ELISA on coated canine IL-31RA, anti-canine IgG Fc-HRP (Example 11), the unit is that of the x axis 'Ab Log Conc. (ng/mL)'
# Experimental: 1. Coat 200 ng/well of IL-31RA on an immunoplate and incubate the plate at 4° C. overnight. [0257] 2. Wash the plate 3 times with phosphate buffered saline (PBS) containing 0.05% Tween 20 (PBST). […] 3. Block the plate with 0.5% bovine serum albumin (BSA) in PBS for 45-60 min at room temperature. [0259] 4. Wash the plate 3 times with PBST. [0260] 5. Three-fold dilute the caninized antibody in each column or row of dilution plate starting at 0.3 μg/mL. [0261] 6. Transfer the diluted caninized antibody into each column or row of the immunoplate, and incubate the plate for 45-60 min at room temperature. [0262] 7. Wash the plate 3 times with PBST. [0263] 8. Add 1:4000 diluted horseradish peroxidase labeled anti-canine IgG Fc into each well of the plate, and then incubate the plate for 45-60 min at room temperature. [0264] 9. Wash the plate 3 times with PBST. [0265] 10. Add 3,3′,5,5′-tetramethylbenzidine (TMB) Substrate into each well of the plate, and incubate the plate for 10 to 15 min at room temperature to develop the color. [0266] 11. Add 100 μL 1.5 M phosphoric acid into each well to stop the reaction. Read plate at 450 nm with 540 nm reference wavelength.
# As depicted in FIGS. 7A-7E, the caninized antibodies were tested for their reactivity to canine IL-31RA.
# Canine IL-31RA ECD-10His [2] = molecular target: T1, Canine IL-31RA ECD-10His; assay: BLI (Octet HTX), biotin-labeled canine IL-31RA on SA biosensors, 1:1 fit
# Experimental: These constants reflect the binding affinity of the individual monoclonal antibodies for canine IL-31 RA.
# (§1) All kinetics measurements were performed by Octet HTX using SA biosensors and Data Acquisition 12.0 software. A biotin-labeled antigen (canine IL-31RA) was loaded onto the pre-rehydrated SA biosensors for 120s at a concentration of 1 μg/mL. Next, the biosensors were placed into Octet Kinetics Buffer (PBS+0.02% Tween 20, 0.1% BSA) for the blocking phase for 120s. Then, for the association phase, antigen loaded biosensors were placed into 2-fold serial dilutions from 100 nM down to 3.13 nM of anti-IL-31RA monoclonal antibody in Octet Kinetics Buffer for 300s. The last well was buffer alone and that sensor was used for reference sensor subtraction. Finally, the biosensors were placed into Octet Kinetics Buffer for the dissociation phase for 300s. Analysis was performed using Data Analysis 12.0 software and curves were fitted using a 1:1 binding model.
# Canine IL-31RA ECD-10His [3] = molecular target: T1, Canine IL-31RA ECD-10His; assay: BLI (Octet), biotin-labeled canine IL-31RA on SA biosensors
# Experimental: as §1
# Two of the top blocking antibodies: 51F8 and 218D9, had KDs of about 0.2 nM and about 0.07 nM respectively (see, Table 5B below).
EC50 (Canine IL-31RA ECD-10His [1]),Kd (Canine IL-31RA ECD-10His [2]),koff (Canine IL-31RA ECD-10His [2]),kon (Canine IL-31RA ECD-10His [2]),Kd (Canine IL-31RA ECD-10His [3]),koff (Canine IL-31RA ECD-10His [3]),kon (Canine IL-31RA ECD-10His [3]),Binder
2.58 ng/mL,–,–,–,–,–,–,"Chimeric 85C10 (antibody, V domains shown, canine constant regions not specified; also called murine-canine chimeric 85C10) VH: EFQLQQSGPELVKPGASVKISCKASGYSFTDYSINWVKQSNGKSLEWIGVINPNYGTSSHNQKFKGKATMTVDQSSSTAYMQLNSLTSEDSAVYYCARALDDYYFYWYFDVWGIGTTVTVSS VL: DVVMTQTPLSLPVSLGDQASISCRSSQSLVHTNGNTYLHWYLQKPGQSPKLLIYKVSNRFSGVPDRFSGSGSGTDFTLKISRVEAEDLGVYFCSQTTHVPLTFGAGTKLELK"
–,0.451 nM,0.000355 s⁻¹,787000 M⁻¹ s⁻¹,–,–,–,"65G9 (antibody, V domains shown, Mouse monoclonal antibody from a hybridoma; also called mouse mAb 65G9) VH: EFQLQQSGPELVKPGASVKISCKASGYSFTDYGMNWLKQINGKSLEWIAIINPNYGTASSNPKFKDKATLTVDHSSSTAYMQLSSLTSEDSAVYYCARAFDGYYFYWYFDVWGTGTTVTVSS VL: DVVMTQTPLSLPVSLGDQASISCRSSQSLIHTNGNTYLHWYLQKPGQSPKLLIYKVSNRFSGVPDRFSGSGSGTDFTLKISRLEAEDLGVYFCSQSTHVPLTFGAGTKLELR"
2.02 ng/mL,–,–,–,–,–,–,"Chimeric 100H8 (antibody, V domains shown, also called murine-canine chimeric 100H8) VH: EVQLQQSGPELVKPGASVKIPCKASGYTFTDYNMDWVKQSHGKSLEWIGHINPNNGGILYNQKFKGKATLTVDRSSNTAYMELRSLTSEDTAVYFCARWAPLVRQPYWYFDVWGTGTTVTVSS VL: DIKMTQSPSSIFASLGERVTITCKASQDINSYLNWFQQKPGKSPKTLIYRADRLVDGVPSRFSGSGSGQDYSLTISSLEYEDMGIYYCLQYDEFPLTFGAGTKLELN"
–,0.174 nM,0.000282 s⁻¹,1.62e+06 M⁻¹ s⁻¹,–,–,–,"222E7 (antibody, V domains shown, Mouse monoclonal antibody from a hybridoma; also called mouse mAb 222E7) VH: EVQLQQSGPELVKPGSSVKIPCKASGYTFTDYNMDWVKQSHGKSLEWIGHINPNIGGTLYNQKFKGKATLSVDKSSSTAYMELRSLTSEDTAVYYCARWAQLQRQPYWYFDVWGPGTTVTVSS VL: DIKMTQSPSSMYASLGERVTITCKASQDINSYLNWFQQKPGKSPKTLIYRVNRLVDGVPSRFSGSGSGQDYSLTISSLEYEDMGIYYCLQYDEFPLTFGAGTKLELK"
–,0.152 nM,0.00012 s⁻¹,788000 M⁻¹ s⁻¹,–,–,–,"100H8 (antibody, V domains shown, Mouse monoclonal antibody from a hybridoma; also called mouse mAb 100H8) VH: EVQLQQSGPELVKPGASVKIPCKASGYTFTDYNMDWVKQSHGKSLEWIGHINPNNGGILYNQKFKGKATLTVDRSSNTAYMELRSLTSEDTAVYFCARWAPLVRQPYWYFDVWGTGTTVTVSS VL: DIKMTQSPSSIFASLGERVTITCKASQDINSYLNWFQQKPGKSPKTLIYRADRLVDGVPSRFSGSGSGQDYSLTISSLEYEDMGIYYCLQYDEFPLTFGAGTKLELN"
–,0.196 nM,9.05e-05 s⁻¹,463000 M⁻¹ s⁻¹,–,–,–,"74H10 (antibody, V domains shown, Mouse monoclonal antibody from a hybridoma; also called mouse mAb 74H10) VH: EVQLQQSGPELVKPGASMKIPCKTSGYTFTDYNMDWVKQSHGKSLEWIGHINPNNGGTLYNQKFKDKATLTVDRSSNTAYMELRSLTSEDTAVYYCARWAPLLRQPYWYFDVWGTGTTVTVSS VL: DIKMTQSPSSMYASLGERVTITCKASQDINSYLNWFQQKPGKSPKTLIYRADRLVDGVPSRFSGSGSGQDYSLTISSLEYEDMGIYYCLQYDEFPLTFGDGTKLELN"
–,0.272 nM,0.000154 s⁻¹,568000 M⁻¹ s⁻¹,–,–,–,"55B3 (antibody, V domains shown, Mouse monoclonal antibody from a hybridoma; also called mouse mAb 55B3) VH: EVQLQQSGPELVKPGASVKIPCKASGYTFTDYNMDWVKQSHGKSLEWIGHINPNTGGTIYNQKFKGKATLTVDKSSSTAYMDLRSLTSEDTAVYYCARWAQLLRQPYWYFDVWGTGTTVTVSS VL: DIKMTQSPSSMYASLGERVTITCKASQDINSYFNWVQQKPGKSPKTLIFRANRLVDGVPSRFSGSGSGQDYSLTINSLEYEDMGIYYCLQYDEFPLTFGAGTKLELK"
0.383 ng/mL,–,–,–,–,–,–,"Chimeric 224G3 (antibody, V domains shown, canine constant regions not specified; also called m224G3 Chim) VH: EVQLVESGGDLVKPGGSLKLSCAASGFTFSSYGMSWVRQTPDKRLEWVATISNGGSYTYYPDSVKGRFTISRDNAKNTLYMQMSSLKSEDTAMYYCARNEPPDYWGQGTSVTVSS VL: QIVLTQSPAIMSASLGERVTMTCTASSSVGSSYLHWYQQKPGSSPKLWIYDTSNLASGVPVRFSGSGSGTSYSLTISSMEAEDAATYYCHQYHRSPYTFGGGTKLEIK"
0.581 ng/mL,–,–,–,–,–,–,"c100H8VH7VL4 (antibody, V domains shown, Caninized antibody; chains tied by name to c100H8VH7-cIgGBm and c100H8VL4-cCK; also called c100H8VH7L4) VH: EVQLVQSGAEVKKPGASVKVSCKASGYTFTDYNMDWVRQAPGAGLDWIGHINPNNGGILYNQKFKGKATLTADTSTSTAYMELSSLRAGDIAVYYCARWAPLVRQPYWYFDVWGQGTLVTVSS VL: DIVMTQTPLSLSVSPGETASISCKASQDINSYLNWFRQKPGQSPQLLIYRADRLVDGVPDRFSGSGSGTDFTLRISTVEADDTGVYYCLQYDEFPLTFGAGTKVELKR"
–,0.207 nM,0.000141 s⁻¹,684000 M⁻¹ s⁻¹,–,–,–,"51F8 (antibody, V domains shown, Mouse monoclonal antibody from a hybridoma; also called mouse mAb 51F8) VH: EVQLQQSVAELVRPGASVKLSCTASGFNIKNTFIHWVKQRPEQGLEWIGRIDPANGNTKYAPKFQGRATLTADTSSNTAYLQLSSLTSEDTAIYYCARYYYVSSYFDVWGTGTTVTVSS VL: SIVMTQTPKFLLVSAGDRVTITCKASQSVTNDVTWYQQKPGQSPKLLIFSASNRYTGVPDRFTGSGYGTDFTFTISTVQAEDLAVYFCQQDYSSPWTFGGGTKLEIK"
3.42 ng/mL,–,–,–,0.207 nM,0.000141 s⁻¹,684000 M⁻¹ s⁻¹,"Chimeric 51F8 (antibody, V domains shown, canine constant regions not specified; also called murine-canine chimeric 51F8) VH: EVQLQQSVAELVRPGASVKLSCTASGFNIKNTFIHWVKQRPEQGLEWIGRIDPANGNTKYAPKFQGRATLTADTSSNTAYLQLSSLTSEDTAIYYCARYYYVSSYFDVWGTGTTVTVSS VL: SIVMTQTPKFLLVSAGDRVTITCKASQSVTNDVTWYQQKPGQSPKLLIFSASNRYTGVPDRFTGSGYGTDFTFTISTVQAEDLAVYFCQQDYSSPWTFGGGTKLEIK"
16.9 ng/mL,–,–,–,2.67 nM,0.00114 s⁻¹,428000 M⁻¹ s⁻¹,"c51F8VH3VL6 (antibody, V domains shown, Caninized antibody; chains tied by name to c51F8VH3-cIgGBm and c51F8VL6-cCK; also called c51F8VH3L6) VH: EVQLVQSGAEVKKPGASVKVSCTASGFNIKNTFIHWVRQAPGAGLDWIGRIDPANGNTKYAPKFQGRATLTADTSTNTAYMQLSSLRAGDIAVYYCARYYYVSSYFDVWGQGTLVTVSS VL: DIVMTQTPLSLSVSPGETASISCKASQSVTNDVTWFRQKPGQSPQLLIYSASNRYTGVPDRFSGSGSGTDFTLRISTVEADDTGVYYCQQDYSSPWTFGQGTKLEIKR"
25 ng/mL,–,–,–,3.99 nM,0.0016 s⁻¹,401000 M⁻¹ s⁻¹,"c51F8VH3VL7 (antibody, V domains shown, Caninized antibody; chains tied by name to c51F8VH3-cIgGBm and c51F8VL7-cCK; also called c51F8VH3L7) VH: EVQLVQSGAEVKKPGASVKVSCTASGFNIKNTFIHWVRQAPGAGLDWIGRIDPANGNTKYAPKFQGRATLTADTSTNTAYMQLSSLRAGDIAVYYCARYYYVSSYFDVWGQGTLVTVSS VL: DIVMTQTPLSLSVSPGETASISCKASQSVTNDVTWFRQKPGQSPKLLIYSASNRYTGVPDRFSGSGSGTDFTLRISTVEADDTGVYYCQQDYSSPWTFGQGTKLEIKR"
8.31 ng/mL,–,–,–,1.01 nM,0.000448 s⁻¹,445000 M⁻¹ s⁻¹,"c51F8VH4VL6 (antibody, V domains shown, Caninized antibody; chains tied by name to c51F8VH4-cIgGBm and c51F8VL6-cCK; also called c51F8VH4L6) VH: EVQLVQSGAEVVKPGASVKVSCTASGFNIKNTFIHWVRQRPGAGLDWIGRIDPANGNTKYAPKFQGRATLTADTSTNTAYMQLSSLRAGDIAVYYCARYYYVSSYFDVWGTGTLVTVSS VL: DIVMTQTPLSLSVSPGETASISCKASQSVTNDVTWFRQKPGQSPQLLIYSASNRYTGVPDRFSGSGSGTDFTLRISTVEADDTGVYYCQQDYSSPWTFGQGTKLEIKR"
